Results reported in article PMC4642536, “Structural analysis of fungus-derived FAD glucose dehydrogenase” (Scientific Reports, 2015).

Biological target: the molecule itself
Assay: SEC; size exclusion chromatography of GOx as comparison to AfGDH; elution volume corresponding to the dimer; conditions not shown (Supplementary Figure S4)

B1: glucose oxidase (enzyme, UniProt P13006 17-605, looked up)
chain: LPHYIRSNGIEASLLTDPKDVSGRTVDYIIAGGGLTGLTTAARLTENPNISVLVIESGSYESDRGPIIEDLNAYGDIFGSSVDHAYETVELATNNQTALIRSGNGLGGSTLVNGGTWTRPHKAQVDSWETVFGNEGWNWDNVAAYSLQAERARAPNAKQIAAGHYFNASCHGVNGTVHAGPRDTGDDYSPIVKALMSAVEDRGVPTKKDFGCGDPHGVSMFPNTLHEDQVRSDAAREWLLPNYQRPNLQVLTGQYVGKVLLSQNGTTPRAVGVEFGTHKGNTHNVYAKHEVLLAAGSAVSPTILEYSGIGMKSILEPLGIDTVVDLPVGLNLQDQTTATVRSRITSAGAGQGQAAWFATFNETFGDYSEKAHELLNTKLEQWAEEAVARGGFHNTTALLIQYENYRDWIVNHNVAYSELFLDTAGVASFDVWDLLPFTRGYVHILDKDPYLHHFAYDPQYFLNELDLLGQAAATQLARNISNSGAMQTYFAGETIPGDNLAYDADLSAWTEYIPYHFRPNYHGVGTCSMMPKEMGGVVDNAARVYGVQGLRVIDGSIPPTQMSSHVMTVFYAMALKISDAILEDYASMQ
notes: glucose oxidase (GOx) used as the comparison in size exclusion chromatography; probably the glycosylated enzyme; also called GOx
  stoichiometry N: 2
